Assay results as given in patent publication US20150203577A1 (Chugai, published 2015).

T1: mouse FcγRIII extracellular domain, C-terminal His tag (mouse, UniProt P08508 31-215)
T1 construct: also called mFcγRIII; mFcgRIII
T1 chain: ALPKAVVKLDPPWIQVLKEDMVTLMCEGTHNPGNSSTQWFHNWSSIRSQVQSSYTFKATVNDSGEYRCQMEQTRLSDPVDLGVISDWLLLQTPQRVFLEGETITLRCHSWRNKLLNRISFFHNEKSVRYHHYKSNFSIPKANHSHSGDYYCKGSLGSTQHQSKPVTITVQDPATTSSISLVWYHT

T2: mouse FcγRII extracellular domain, C-terminal His tag (mouse, UniProt P08101 30-210)
T2 construct: also called mFcγRII; mFcgRII
T2 sequence: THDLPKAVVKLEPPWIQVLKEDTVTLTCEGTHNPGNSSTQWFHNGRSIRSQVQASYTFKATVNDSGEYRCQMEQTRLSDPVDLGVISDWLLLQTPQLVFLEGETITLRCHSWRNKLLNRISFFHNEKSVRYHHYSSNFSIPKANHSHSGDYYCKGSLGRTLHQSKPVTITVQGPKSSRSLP


Experiments:
[1] = target: T1, mouse FcγRIII extracellular domain, …; assay: SPR (Biacore T200), antibody captured on Protein L, mFcγR analyte
Experimental: (§1) Each altered antibody was analyzed for its interaction with each Fcγ receptor prepared above using Biacore T100 (GE Healthcare Japan Corp.), Biacore T200 (GE Healthcare Japan Corp.), Biacore A100, or Biacore 4000. The running buffer used was HBS-EP+ (GE Healthcare Japan Corp.). The assay temperature was set to 25° C. The sensor chips used were chips prepared by immobilizing Protein L (ACTIGEN or BioVision) onto Series S Sensor Chip CM5 (GE Healthcare Japan Corp.) or Series S Sensor Chip CM4 (GE Healthcare Japan Corp.) by the amine coupling method.
(§2) In order to calculate the KD value of each altered antibody for FcγR, kinetic analysis was conducted according to the following method: first, the antibody of interest was captured onto any of these chips and allowed to interact with mFcγR diluted with a running buffer. For the obtained sensorgram, the assay results were globally fit into the 1:1 Langmuir binding model using Biacore Evaluation Software to calculate an association rate constant ka (L/mol/s) and a dissociation rate constant kd (1/s). From these values, the dissociation constant KD (mol/L) was calculated.

[2] = target: T2, mouse FcγRII extracellular domain, …; assay: as above
Experimental: as §1, §2

Binder | Kd [1] [nM] | relative mFcγRIII-binding activity (mIgG1 = 1) [1] | Kd [2] [nM] | relative mFcγRII-binding activity (mIgG1 = 1) [2]
H237-MB770/MRAL-k0 (antibody, mouse IgG1, kappa, copies: 2 + 2) heavy: QVQLQESGPGLVKPSETLSLTCAVSGHSISHDHAWSWVRQPPGEGLEWIGFISYSGITNYNPSLQGRVTISRDNSKNTLYLQMNSLRAEDTAVYYCARSLARTTAMDYWGEGTLVTVSSAKTTPPSVYPLAPGSAAQTNSMVTLGCLVKGYFPEPVTVTWNSGSLSSGVHTFPAVLQSDLYTLSSSVTVPSSTWPSETVTCNVAHPASSTKVDKKIVPRDCGCKPCICEPNEVELVFIFPPKPKDVLTITLTPKVTCVVVDISKDDPEVQFSWFVDDVEVHTAQTQPREEQFNSTFRSVSELPIMHQDWLNGKEFKCRVNSAAFPAFIEKTISKTKGRPKAPQVYTIPPPKEQMAKDKVSLTCMITDFFPEDITVEWQWNGQPAENYKNTQPIMDTDGSYFVYSKLNVQKSNWEAGNTFTCSVLHEGLHNHHTEKSLSHSPGK light: not shown | 1170 | 0.2 fold vs H237-mIgG1/MRAL-k0 | 15.7 | 13.3 fold vs H237-mIgG1/MRAL-k0
H237-MB779/MRAL-k0 (antibody, mouse IgG1, kappa, copies: 2 + 2) heavy: QVQLQESGPGLVKPSETLSLTCAVSGHSISHDHAWSWVRQPPGEGLEWIGFISYSGITNYNPSLQGRVTISRDNSKNTLYLQMNSLRAEDTAVYYCARSLARTTAMDYWGEGTLVTVSSAKTTPPSVYPLAPGSAAQTNSMVTLGCLVKGYFPEPVTVTWNSGSLSSGVHTFPAVLQSDLYTLSSSVTVPSSTWPSETVTCNVAHPASSTKVDKKIVPRDCGCKPCICEPNEVELVFIFPPKPKDVLTITLTPKVTCVVVDISKDDPEVQFSWFVDDVEVHTAQTQPREEQFNSTFRSVSELPIMHQDWLNGKEFKCRVNSAAFPAPIEKTIWKTKGRPKAPQVYTIPPPKEQMAKDKVSLTCMITDFFPEDITVEWQWNGQPAENYKNTQPIMDTDGSYFVYSKLNVQKSNWEAGNTFTCSVLHEGLHNHHTEKSLSHSPGK light: not shown | 1610 | 0.2 fold vs H237-mIgG1/MRAL-k0 | 21 | 10 fold vs H237-mIgG1/MRAL-k0
H237-MB761/MRAL-k0 (antibody, mouse IgG1, kappa, copies: 2 + 2) heavy: QVQLQESGPGLVKPSETLSLTCAVSGHSISHDHAWSWVRQPPGEGLEWIGFISYSGITNYNPSLQGRVTISRDNSKNTLYLQMNSLRAEDTAVYYCARSLARTTAMDYWGEGTLVTVSSAKTTPPSVYPLAPGSAAQTNSMVTLGCLVKGYFPEPVTVTWNSGSLSSGVHTFPAVLQSDLYTLSSSVTVPSSTWPSETVTCNVAHPASSTKVDKKIVPRDCGCKPCICEPNEVELVFIFPPKPKDVLTITLTPKVTCVVVDISKDDPEVQFSWFVDDVEVHTAQTQPREEQFNMTFRSVSELPIMHQDWLNGKEFKCRVDSAAFPAPIERTISKTKGRPKAPQVYTIPPPKEQMAKDKVSLTCMITDFFPEDITVEWQWNGQPAENYKNTQPIMDTDGSYFVYSKLNVQKSNWEAGNTFTCSVLHEGLHNHHTEKSLSHSPGK light: not shown | 1570 | 0.2 fold vs H237-mIgG1/MRAL-k0 | 15.7 | 13.4 fold vs H237-mIgG1/MRAL-k0
H237-MB776/MRAL-k0 (antibody, mouse IgG1, kappa, copies: 2 + 2) heavy: QVQLQESGPGLVKPSETLSLTCAVSGHSISHDHAWSWVRQPPGEGLEWIGFISYSGITNYNPSLQGRVTISRDNSKNTLYLQMNSLRAEDTAVYYCARSLARTTAMDYWGEGTLVTVSSAKTTPPSVYPLAPGSAAQTNSMVTLGCLVKGYFPEPVTVTWNSGSLSSGVHTFPAVLQSDLYTLSSSVTVPSSTWPSETVTCNVAHPASSTKVDKKIVPRDCGCKPCICEPNEVELVFIFPPKPKDVLTITLTPKVTCVVVDISKDDPEVQFSWFVDDVEVHTAQTQPREEQFNSTFRSVSELPIMHQDWLNGKEFKCRVNSAAFPAPIEKYISKTKGRPKAPQVYTIPPPKEQMAKDKVSLTCMITDFFPEDITVEWQWNGQPAENYKNTQPIMDTDGSYFVYSKLNVQKSNWEAGNTFTCSVLHEGLHNHHTEKSLSHSPGK light: not shown | 1430 | 0.2 fold vs H237-mIgG1/MRAL-k0 | 18.6 | 11.3 fold vs H237-mIgG1/MRAL-k0

More lines, in order of falling Kd [1], values ahead:

Kd [1] [nM] | relative mFcγRIII-binding activity (mIgG1 = 1) [1] | Kd [2] [nM] | relative mFcγRII-binding activity (mIgG1 = 1) [2] | Binder
1310 | 0.2 fold vs H237-mIgG1/MRAL-k0 | 16.5 | 12.7 fold vs H237-mIgG1/MRAL-k0 | H237-MB773/MRAL-k0 (antibody, mouse IgG1, kappa, copies: 2 + 2) heavy: QVQLQESGPGLVKPSETLSLTCAVSGHSISHDHAWSWVRQPPGEGLEWIGFISYSGITNYNPSLQGRVTISRDNSKNTLYLQMNSLRAEDTAVYYCARSLARTTAMDYWGEGTLVTVSSAKTTPPSVYPLAPGSAAQTNSMVTLGCLVKGYFPEPVTVTWNSGSLSSGVHTFPAVLQSDLYTLSSSVTVPSSTWPSETVTCNVAHPASSTKVDKKIVPRDCGCKPCICEPNEVELVFIFPPKPKDVLTITLTPKVTCVVVDISKDDPEVQFSWFVDDVEVHTAQTQPREEQFNSTFRSVSELPIMHQDWLNGKEFKCRVNSAAFPAPIYKTISKTKGRPKAPQVYTIPPPKEQMAKDKVSLTCMITDFFPEDITVEWQWNGQPAENYKNTQPIMDTDGSYFVYSKLNVQKSNWEAGNTFTCSVLHEGLHNHHTEKSLSHSPGK light: not shown
1070 | 0.3 fold vs H237-mIgG1/MRAL-k0 | 15.2 | 13.8 fold vs H237-mIgG1/MRAL-k0 | H237-MB771/MRAL-k0 (antibody, mouse IgG1, kappa, copies: 2 + 2) heavy: QVQLQESGPGLVKPSETLSLTCAVSGHSISHDHAWSWVRQPPGEGLEWIGFISYSGITNYNPSLQGRVTISRDNSKNTLYLQMNSLRAEDTAVYYCARSLARTTAMDYWGEGTLVTVSSAKTTPPSVYPLAPGSAAQTNSMVTLGCLVKGYFPEPVTVTWNSGSLSSGVHTFPAVLQSDLYTLSSSVTVPSSTWPSETVTCNVAHPASSTKVDKKIVPRDCGCKPCICEPNEVELVFIFPPKPKDVLTITLTPKVTCVVVDISKDDPEVQFSWFVDDVEVHTAQTQPREEQFNSTFRSVSELPIMHQDWLNGKEFKCRVNSAAFPAYIEKTISKTKGRPKAPQVYTIPPPKEQMAKDKVSLTCMITDFFPEDITVEWQWNGQPAENYKNTQPIMDTDGSYFVYSKLNVQKSNWEAGNTFTCSVLHEGLHNHHTEKSLSHSPGK light: not shown
1060 | 0.3 fold vs H237-mIgG1/MRAL-k0 | 15 | 14 fold vs H237-mIgG1/MRAL-k0 | H237-MB766/MRAL-k0 (antibody, mouse IgG1, kappa, copies: 2 + 2) heavy: QVQLQESGPGLVKPSETLSLTCAVSGHSISHDHAWSWVRQPPGEGLEWIGFISYSGITNYNPSLQGRVTISRDNSKNTLYLQMNSLRAEDTAVYYCARSLARTTAMDYWGEGTLVTVSSAKTTPPSVYPLAPGSAAQTNSMVTLGCLVKGYFPEPVTVTWNSGSLSSGVHTFPAVLQSDLYTLSSSVTVPSSTWPSETVTCNVAHPASSTKVDKKIVPRDCGCKPCICEPNEVELVFIFPPKPKDVLTITLTPKVTCVVVDISKDDPEVQFSWFVDDVEVHTAQTQPREEQFNSTFRSVSELPIMHQDWLNGKEFKCRVMSAAFPAPIEKTISKTKGRPKAPQVYTIPPPKEQMAKDKVSLTCMITDFFPEDITVEWQWNGQPAENYKNTQPIMDTDGSYFVYSKLNVQKSNWEAGNTFTCSVLHEGLHNHHTEKSLSHSPGK light: not shown
1020 | 0.3 fold vs H237-mIgG1/MRAL-k0 | 14.9 | 14.1 fold vs H237-mIgG1/MRAL-k0 | H237-MB760/MRAL-k0 (antibody, mouse IgG1, kappa, copies: 2 + 2) heavy: QVQLQESGPGLVKPSETLSLTCAVSGHSISHDHAWSWVRQPPGEGLEWIGFISYSGITNYNPSLQGRVTISRDNSKNTLYLQMNSLRAEDTAVYYCARSLARTTAMDYWGEGTLVTVSSAKTTPPSVYPLAPGSAAQTNSMVTLGCLVKGYFPEPVTVTWNSGSLSSGVHTFPAVLQSDLYTLSSSVTVPSSTWPSETVTCNVAHPASSTKVDKKIVPRDCGCKPCICEPNEVELVFIFPPKPKDVLTITLTPKVTCVVVDISKDDPEVQFSWFVDDVEVHTAQTQPREEQFNLTFRSVSELPIMHQDWLNGKEFKCRVDSAAFPAPIERTISKTKGRPKAPQVYTIPPPKEQMAKDKVSLTCMITDFFPEDITVEWQWNGQPAENYKNTQPIMDTDGSYFVYSKLNVQKSNWEAGNTFTCSVLHEGLHNHHTEKSLSHSPGK light: not shown
